Reference: paper PMC2132707
Where “and” joins values, the source holds several entries; their conditions need not be identical. Equal entries are not always repeated.

Target: heavy chains (Iα and Iβ) of inner arm dynein I1 (Chlamydomonas reinhardtii (endogenous in axonemes)) (UniProt Q9SMH3)
Test: quantitative densitometry of Coomassie blue-stained gels

Row | Substance | most likely relative stoichiometry (relative to the HCs) (relative to the HCs) | relative stoichiometry (relative to the HCs) (relative to the HCs)
1 | IC97 of inner arm dynein I1 (natural protein) | 0.5 to 1 | 0.95 and 0.67 and 0.56
2 | Chlamydomonas 8,000-M r LC (natural protein) | 4 to 5.5 | 4 to 5.5
3 | IC140 of inner arm dynein I1 (natural protein) | 0.5 to 1 | 0.71 and 0.53 and 0.63
